Reference: PMC8844116

B1: Flag-RAGE wild type (LV-Flag-RAGE-wt, wild-type ctRAGE) [mouse] / mitogen-activated protein kinase kinase 3 (MKK3), endogenous in mouse hippocampus and HT22 cells [mouse (endogenous in hippocampus and in HT22)] (parent)
chain 1: GQNITARIGEPLVLSCKGAPKKPPQQLEWKLNTGRTEAWKVLSPQGGPWDSVARILPNGSLLLPATGIVDEGTFRCRATNRRGKEVKSNYRVRVYQIPGKPEIVDPASELTASVPNKVGTCVSEGSYPAGTLSWHLDGKLLIPDGKETLVKEETRRHPETGLFTLRSELTVIPTQGGTHPTFSCSFSLGLPRRRPLNTAPIQLRVREPGPPEGIQLLVEPEGGIVAPGGTVTLTCAISAQPPPQVHWIKDGAPLPLAPSPVLLLPEVGHEDEGTYSCVATHPSHGPQESPPVSIRVTETGDEGPAEGSVGESGLGTLALALGILGGLGVVALLVGAILWRKRQPRREERKAPESQEDEEERAELNQSEEAEMPENGAGGP
chain 2: MESPAASPPASLPQTKGKSKRKKDLRISCVSKPPVSNPTPPRNLDSRTFITIGDRNFEVEADDLVTISELGRGAYGVVEKVRHAQSGTIMAVKRIRATVNTQEQKRLLMDLDINMRTVDCFYTVTFYGALFREGDVWICMELMDTSLDKFYRKVLEKNMKIPEDILGEIAVSIVRALEHLHSKLSVIHRDVKPSNVLINKEGHVKMCDFGISGYLVDSVAKTMDAGCKPYMAPERINPELNQKGYNVKSDVWSLGITMIEMAILRFPYESWGTPFQQLKQVVEEPSPQLPADQFSPEFVDFTSQCLRKNPAERMSYLELMEHPFFTLHKTKKTDIAAFVKEILGEDS

Variants of: B1
Test: co-immunoprecipitation (IP: Flag-RAGE, IB: MKK3), optical density of blot
Conditions: with mitogen-activated protein kinase kinase 3 (MKK3), HT22 cells with RAGE-shRNA knockdown, high glucose, n = 3, parent: 6, read off a plot

response (fold change to HG + RAGE-shRNA group)	Variant
1.6	chain 1 GQNITARIGEPLVLSCKGAPKKPPQQLEWKLNTGRTEAWKVLSPQGGPWDSVARILPNGSLLLPATGIVDEGTFRCRATNRRGKEVKSNYRVRVYQIPGKPEIVDPASELTASVPNKVGTCVSEGSYPAGTLSWHLDGKLLIPDGKETLVKEETRRHPETGLFTLRSELTVIPTQGGTHPTFSCSFSLGLPRRRPLNTAPIQLRVREPGPPEGIQLLVEPEGGIVAPGGTVTLTCAISAQPPPQVHWIKDGAPLPLAPSPVLLLPEVGHEDEGTYSCVATHPSHGPQESPPVSIRVTETGDEGPAEGSVGESGLGTLALALGILGGLGVVALLVGAILWAAAAPRREERKAPESQEDEEERAELNQSEEAEMPENGAGGP [chain 1 R340A K341A R342A Q343A]

Same assay, conditions: with mitogen-activated protein kinase kinase 3 (MKK3), hippocampus of db/db mice with LV-RAGE-shRNA, n = 3, parent: 3, read off a plot

response (fold change to db/db + RAGE-shRNA group)	Variant
1.4	chain 1 GQNITARIGEPLVLSCKGAPKKPPQQLEWKLNTGRTEAWKVLSPQGGPWDSVARILPNGSLLLPATGIVDEGTFRCRATNRRGKEVKSNYRVRVYQIPGKPEIVDPASELTASVPNKVGTCVSEGSYPAGTLSWHLDGKLLIPDGKETLVKEETRRHPETGLFTLRSELTVIPTQGGTHPTFSCSFSLGLPRRRPLNTAPIQLRVREPGPPEGIQLLVEPEGGIVAPGGTVTLTCAISAQPPPQVHWIKDGAPLPLAPSPVLLLPEVGHEDEGTYSCVATHPSHGPQESPPVSIRVTETGDEGPAEGSVGESGLGTLALALGILGGLGVVALLVGAILWAAAAPRREERKAPESQEDEEERAELNQSEEAEMPENGAGGP [chain 1 R340A K341A R342A Q343A]

Variants of: B1
Test: co-immunoprecipitation (IP: MKK3, IB: Flag-RAGE), optical density of blot
Conditions: with mitogen-activated protein kinase kinase 3 (MKK3), HT22 cells with RAGE-shRNA knockdown, high glucose, n = 3, parent: 6.8, read off a plot

response (fold change to HG + RAGE-shRNA group)	Variant
1.8	chain 1 GQNITARIGEPLVLSCKGAPKKPPQQLEWKLNTGRTEAWKVLSPQGGPWDSVARILPNGSLLLPATGIVDEGTFRCRATNRRGKEVKSNYRVRVYQIPGKPEIVDPASELTASVPNKVGTCVSEGSYPAGTLSWHLDGKLLIPDGKETLVKEETRRHPETGLFTLRSELTVIPTQGGTHPTFSCSFSLGLPRRRPLNTAPIQLRVREPGPPEGIQLLVEPEGGIVAPGGTVTLTCAISAQPPPQVHWIKDGAPLPLAPSPVLLLPEVGHEDEGTYSCVATHPSHGPQESPPVSIRVTETGDEGPAEGSVGESGLGTLALALGILGGLGVVALLVGAILWAAAAPRREERKAPESQEDEEERAELNQSEEAEMPENGAGGP [chain 1 R340A K341A R342A Q343A]

Same assay, conditions: with mitogen-activated protein kinase kinase 3 (MKK3), hippocampus of db/db mice with LV-RAGE-shRNA, n = 3, parent: 3.4, read off a plot

response (fold change to db/db + RAGE-shRNA group)	Variant
1.9	chain 1 GQNITARIGEPLVLSCKGAPKKPPQQLEWKLNTGRTEAWKVLSPQGGPWDSVARILPNGSLLLPATGIVDEGTFRCRATNRRGKEVKSNYRVRVYQIPGKPEIVDPASELTASVPNKVGTCVSEGSYPAGTLSWHLDGKLLIPDGKETLVKEETRRHPETGLFTLRSELTVIPTQGGTHPTFSCSFSLGLPRRRPLNTAPIQLRVREPGPPEGIQLLVEPEGGIVAPGGTVTLTCAISAQPPPQVHWIKDGAPLPLAPSPVLLLPEVGHEDEGTYSCVATHPSHGPQESPPVSIRVTETGDEGPAEGSVGESGLGTLALALGILGGLGVVALLVGAILWAAAAPRREERKAPESQEDEEERAELNQSEEAEMPENGAGGP [chain 1 R340A K341A R342A Q343A]
